# Patent US7169891B2, “Human pellino polypeptides” (Immunex Corporation, priority 2000, dated 2007)
# Tested on: NF-kB-dependent reporter gene
# Assay: NF-kB-dependent reporter gene (luciferase) assay in transfected COS cells
# Assay type: cell-based, monkey
# Conditions: COS cells transfected with high concentrations of expressing construct
# Text: The murine Pellino-1 coding sequence DNA was fused, in frame at the 3′ end, to DNA encoding the FLAG epitope, followed by an in-frame stop codon. This construct was cloned into the mammalian expression vector pDC304 (identical to pDC302, described in U.S. Pat. No. 5,599,905, issued Feb. 4, 1997, except that the early splice region, consisting of splice donor and acceptor sites of the SV40 viral element, has been removed); and transfected into an IL-1-responsive line of COS-7 cells by the DEAE-dextran method.
# In order to assay the effect of the Pellino-1-FLAG polypeptide and other forms of Pellino polypeptides on reporter gene activity, a method essentially as described in Born et al., 1998, J. Biol. Cheni. 273: 29445–29450 (which is incorporated by reference herein) can be used. As one example of this method, Cos7 cells were transiently transfected by the DEAE-dextran method as described (Cosman et al., 1984, Nature 312: 768–771, which is incorporated by reference herein), using 150 ng of the Pellino polypeptide expression construct and 700 ng of the reporter plasmid per 45,000 cells. Two days post-transfection, cells were stimulated with 10 ng/ml IL-1 or 40 ng/ml IL-18 (PeproTech, Inc.) for 4 hours. Cells were lysed and luciferase activity assessed using Reporter Lysis Buffer and Luciferase Assay Reagent (Promega Corp.). IL-8 promoter-reporter and NFkB-dependent reporter constructs may be used as reporter plasmids. Alternatively, the effect of Pellino polypeptide expression may be assayed in COS-1 cells. In an alternative preferred method, COS7 cells were grown in 12-well dishes as described above. The cells were transiently transfected with Pellino test plasmid, 50 ng of reporter plasmid DNA, and empty vector, as required, to a total of 1 micrograms of total DNA per well. After 24 hours, stimulating agents were added in a small amount (less than 0.5% final volume) of medium or dimethyl sulfoxide, and the cells were re-incubated for 5 hours. Cells were lysed in luciferase Reporter Lysis Buffer (Promega, Madison Wis., 0.25 ml per well) and luciferase activity was measured in a EG & G/Berthold luminometer after addition of Luciferase Assay Reagent (Promega) according to the supplier's instructions. All results were normalized to total protein content of the lysates as measured using the micro-BCA assay (Pierce, Rockford, Ill).
row,Molecule,NFkB-dependent reporter gene activity
1,"wild-type Pellino-2: wild-type Pellino-2 polypeptide expressed in COS cells; species not stated at the result (protein, UniProt Q9HAT8 1-420, looked up) E3 ubiquitin-protein ligase …: MFSPGQEEHCAPNKEPVKYGELVVLGYNGALPNGDRGRRKSRFALYKRPKANGVKPSTVHVISTPQASKAISCKGQHSISYTLSRNQTVVVEYTHDKDTDMFQVGRSTESPIDFVVTDTISGSQNTDEAQITQSTISRFACRIVCDRNEPYTARIFAAGFDSSKNIFLGEKAAKWKNPDGHMDGLTTNGVLVMHPRGGFTEESQPGVWREISVCGDVYTLRETRSAQQRGKLVESETNVLQDGSLIDLCGATLLWRTADGLFHTPTQKHIEALRQEINAARPQCPVGLNTLAFPSINRKEVVEEKQPWAYLSCGHVHGYHNWGHRSDTEANERECPMCRTVGPYVPLWLGCEAGFYVDAGPPTHAFTPCGHVCSEKSAKYWSQIPLPHGTHAFHAACPFCATQLVGEQNCIKLIFQGPID",inhibitory effect

# Same assay, conditions: NF-kB-dependent reporter gene activity; form of murine Pellino-1 expressed in COS cells
row,Molecule,Effect on Reporter Gene
1,"dN50-FLAG: murine Pellino-1-FLAG, N-terminal 50 amino acids deleted (protein, UniProt Q8C669 51-418, looked up, fragment, FLAG tag, murine Pellino-1-FLAG, N-terminal 50 amino acids deleted) GVKPSTVHIACTPQAAKAISNKDQHSISYTLSRAQTVVVEYTHDSNTDMFQIGRSTESPIDFVVTDTVPGSQSNSDTQSVQSTISRFACRIICERSPPFTARIYAAGFDSSKNIFLGEKAAKWKTSDGQMDGLTTNGVLVMHPRNGFTEDSKPGIWREISVCGNVFSLRETRSAQQRGKMVEIETNQLQDGSLIDLCGATLLWRTAEGLSHTPTVKHLEALRQEINAARPQCPVGFNTLAFPSMKRKDVVDEKQPWVYLNCGHVHGYHNWGNKEERDGKDRECPMCRSVGPYVPLWLGCEAGFYVDAGPPTHAFSPCGHVCSEKTTAYWSQIPLPHGTHTFHAACPFCAHQLAGEQGYIRLIFQGPLD",Inhibitory
2,"dN180-FLAG: murine Pellino-1-FLAG, N-terminal 180 amino acids deleted (protein, UniProt Q8C669 181-418, looked up, fragment, FLAG tag, murine Pellino-1-FLAG, N-terminal 180 amino acids deleted) DGLTTNGVLVMHPRNGFTEDSKPGIWREISVCGNVFSLRETRSAQQRGKMVEIETNQLQDGSLIDLCGATLLWRTAEGLSHTPTVKHLEALRQEINAARPQCPVGFNTLAFPSMKRKDVVDEKQPWVYLNCGHVHGYHNWGNKEERDGKDRECPMCRSVGPYVPLWLGCEAGFYVDAGPPTHAFSPCGHVCSEKTTAYWSQIPLPHGTHTFHAACPFCAHQLAGEQGYIRLIFQGPLD",inactive
3,"1–350: murine Pellino-1, only amino acids 1–350 present (protein, UniProt Q8C669 1-350, looked up, fragment) MFSPDQENHPSKAPVKYGELIVLGYNGSLPNGDRGRRKSRFALFKRPKANGVKPSTVHIACTPQAAKAISNKDQHSISYTLSRAQTVVVEYTHDSNTDMFQIGRSTESPIDFVVTDTVPGSQSNSDTQSVQSTISRFACRIICERSPPFTARIYAAGFDSSKNIFLGEKAAKWKTSDGQMDGLTTNGVLVMHPRNGFTEDSKPGIWREISVCGNVFSLRETRSAQQRGKMVEIETNQLQDGSLIDLCGATLLWRTAEGLSHTPTVKHLEALRQEINAARPQCPVGFNTLAFPSMKRKDVVDEKQPWVYLNCGHVHGYHNWGNKEERDGKDRECPMCRSVGPYVPLWLGCE",inactive
4,"Y154A-FLAG: murine Pellino-1-FLAG, Tyr to Ala substitution at residue 154 (protein, UniProt Q8C669 1-418, looked up, variant Y154A, FLAG tag) E3 ubiquitin-protein ligase …: MFSPDQENHPSKAPVKYGELIVLGYNGSLPNGDRGRRKSRFALFKRPKANGVKPSTVHIACTPQAAKAISNKDQHSISYTLSRAQTVVVEYTHDSNTDMFQIGRSTESPIDFVVTDTVPGSQSNSDTQSVQSTISRFACRIICERSPPFTARIAAAGFDSSKNIFLGEKAAKWKTSDGQMDGLTTNGVLVMHPRNGFTEDSKPGIWREISVCGNVFSLRETRSAQQRGKMVEIETNQLQDGSLIDLCGATLLWRTAEGLSHTPTVKHLEALRQEINAARPQCPVGFNTLAFPSMKRKDVVDEKQPWVYLNCGHVHGYHNWGNKEERDGKDRECPMCRSVGPYVPLWLGCEAGFYVDAGPPTHAFSPCGHVCSEKTTAYWSQIPLPHGTHTFHAACPFCAHQLAGEQGYIRLIFQGPLD",Stimulatory
5,"F165L-FLAG: murine Pellino-1-FLAG, Phe to Leu substitution at residue 165 (protein, UniProt Q8C669 1-418, looked up, variant F165L, FLAG tag) E3 ubiquitin-protein ligase …: MFSPDQENHPSKAPVKYGELIVLGYNGSLPNGDRGRRKSRFALFKRPKANGVKPSTVHIACTPQAAKAISNKDQHSISYTLSRAQTVVVEYTHDSNTDMFQIGRSTESPIDFVVTDTVPGSQSNSDTQSVQSTISRFACRIICERSPPFTARIYAAGFDSSKNILLGEKAAKWKTSDGQMDGLTTNGVLVMHPRNGFTEDSKPGIWREISVCGNVFSLRETRSAQQRGKMVEIETNQLQDGSLIDLCGATLLWRTAEGLSHTPTVKHLEALRQEINAARPQCPVGFNTLAFPSMKRKDVVDEKQPWVYLNCGHVHGYHNWGNKEERDGKDRECPMCRSVGPYVPLWLGCEAGFYVDAGPPTHAFSPCGHVCSEKTTAYWSQIPLPHGTHTFHAACPFCAHQLAGEQGYIRLIFQGPLD",Stimulatory
6,"F158A-FLAG: murine Pellino-1-FLAG, Phe to Ala substitution at residue 158 (protein, UniProt Q8C669 1-418, looked up, variant F158A, FLAG tag) E3 ubiquitin-protein ligase …: MFSPDQENHPSKAPVKYGELIVLGYNGSLPNGDRGRRKSRFALFKRPKANGVKPSTVHIACTPQAAKAISNKDQHSISYTLSRAQTVVVEYTHDSNTDMFQIGRSTESPIDFVVTDTVPGSQSNSDTQSVQSTISRFACRIICERSPPFTARIYAAGADSSKNIFLGEKAAKWKTSDGQMDGLTTNGVLVMHPRNGFTEDSKPGIWREISVCGNVFSLRETRSAQQRGKMVEIETNQLQDGSLIDLCGATLLWRTAEGLSHTPTVKHLEALRQEINAARPQCPVGFNTLAFPSMKRKDVVDEKQPWVYLNCGHVHGYHNWGNKEERDGKDRECPMCRSVGPYVPLWLGCEAGFYVDAGPPTHAFSPCGHVCSEKTTAYWSQIPLPHGTHTFHAACPFCAHQLAGEQGYIRLIFQGPLD",Slightly
7,"1–250: murine Pellino-1, only amino acids 1–250 present (protein, UniProt Q8C669 1-250, looked up, fragment) MFSPDQENHPSKAPVKYGELIVLGYNGSLPNGDRGRRKSRFALFKRPKANGVKPSTVHIACTPQAAKAISNKDQHSISYTLSRAQTVVVEYTHDSNTDMFQIGRSTESPIDFVVTDTVPGSQSNSDTQSVQSTISRFACRIICERSPPFTARIYAAGFDSSKNIFLGEKAAKWKTSDGQMDGLTTNGVLVMHPRNGFTEDSKPGIWREISVCGNVFSLRETRSAQQRGKMVEIETNQLQDGSLIDLCGAT",inactive
8,"dN230-FLAG: murine Pellino-1-FLAG, N-terminal 230 amino acids deleted (protein, UniProt Q8C669 231-418, looked up, fragment, FLAG tag, murine Pellino-1-FLAG, N-terminal 230 amino acids deleted) VEIETNQLQDGSLIDLCGATLLWRTAEGLSHTPTVKHLEALRQEINAARPQCPVGFNTLAFPSMKRKDVVDEKQPWVYLNCGHVHGYHNWGNKEERDGKDRECPMCRSVGPYVPLWLGCEAGFYVDAGPPTHAFSPCGHVCSEKTTAYWSQIPLPHGTHTFHAACPFCAHQLAGEQGYIRLIFQGPLD",inactive
